Experimental data: EP1736482A1 (INSERM (Institut National de la Santé et de la Recherche …, dated 2006)

Biological target: T1, recombinant human 4-1BB-Fc chimera (R&D Systems) (human, UniProt Q07011 24-186)
T1 construct: Bought; Covalently coupled to a CM5 chip at 500 resonance units; also called 4-IBB-Fc; recombinant 4-1BB; Fc part of the bought chimera not given, not described
Experiment: SPR (BIAcore 2000), 4-1BB-Fc coupled to CM5 chip, ligand in flow, 25°C

Kd: 55.2 nM
fold lower association rate (kon) against WT AviTag-4-1BBL: 30 fold
koff: 0.00037 s⁻¹
kon: 6700 M⁻¹ s⁻¹
B1: FLAG-4-1BBL (Alexis), FLAG peptide coupled to the TNF homology domain of human 4-1BBL through an undefined 11 aa linker (ligand, UniProt P41273 93-254, looked up)
chain: AQLVAQNVLLIDGPLSWYSDPGLAGVSLTGGLSYKEDTKELVVAKAGVYYVFFQLELRRVVAGEGSGSVSLALHLQPLRSAAGAAALALTVDLPPASSEARNSAFGFQGRLLHLSAGQRLGVHLHTEARARHAWQLTQGATVLGLFRVTPEIPAGLPSPRSE
notes: domain: TNF homology domain (THD); Bought from Alexis, produced in HEK293; also called FLAG-tagged 4-1BBL; soluble FLAG-4-1BBL; not shown: FLAG peptide (8aa); undefined 11aa linker
